For the assay, the target named is HIV-1 Gag precursor Pr55Gag, full-length wild type (HIV-1) (UniProt P03348). Nature of the assay: co-sedimentation.

This note sets out measurements from PMC3207847, “Characterization of a Novel Type of HIV-1 Particle Assembly Inhibitor Using a Quantitative Luciferase-Vpr Packaging-Based Assay” (PLoS ONE, 2011).

Substance “luciferase-Vpr fusion protein (LucVpr) (from UniProt P05928 1-96) (natural protein)” showed a copies of Gag per LucVpr molecule in VLP (copies of Gag per LucVpr molecule) of 4.92.

For the substance “oligohistidine-tagged HIV-1 Vpr protein (from UniProt P05928 1-96) (natural protein)”, the copies of Gag per Vpr molecule in VLP (copies of Gag per Vpr molecule) stood at 5.6.
